Reference: paper PMC8728441, “Biosynthesis of the redox cofactor mycofactocin is controlled by the transcriptional regulator MftR and induced by long-chain acyl-CoA species” (The Journal of Biological Chemistry, 2021)
Residue numbers refer to the chain shown, from its start.

T1: MftR WT (Mycobacterium smegmatis mc2155, UniProt A0QSB5 1-200)
T1 sequence: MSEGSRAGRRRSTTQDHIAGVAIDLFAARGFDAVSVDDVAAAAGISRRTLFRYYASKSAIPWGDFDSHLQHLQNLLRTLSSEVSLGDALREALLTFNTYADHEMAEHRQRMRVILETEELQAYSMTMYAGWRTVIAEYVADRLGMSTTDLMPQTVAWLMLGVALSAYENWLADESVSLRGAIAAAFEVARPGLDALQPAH

T2: MftR H68A (Mycobacterium smegmatis mc2155, UniProt A0QSB5 1-200, H68A)
T2 sequence: T1 sequence with H68A

T3: MftR D16R (Mycobacterium smegmatis mc2155, UniProt A0QSB5 1-200, D16R)
T3 sequence: T1 sequence with D16R

T4: MftR R48A (Mycobacterium smegmatis mc2155, UniProt A0QSB5 1-200, R48A)
T4 sequence: T1 sequence with R48A

T5: MftR D38A (Mycobacterium smegmatis mc2155, UniProt A0QSB5 1-200, D38A)
T5 sequence: T1 sequence with D38A

T6: MftR L120R (Mycobacterium smegmatis mc2155, UniProt A0QSB5 1-200, L120R)
T6 sequence: T1 sequence with L120R

T7: MftR M127A (Mycobacterium smegmatis mc2155, UniProt A0QSB5 1-200, M127A)
T7 sequence: T1 sequence with M127A

T8: MftR R29A (Mycobacterium smegmatis mc2155, UniProt A0QSB5 1-200, R29A)
T8 sequence: T1 sequence with R29A

B1: FAM-Omft (dsDNA)
DNA 1: TCCATTCTGGCACTCGATGCCATATAT
DNA 2: ATATATGGCATCGAGTGCCAGAATGGA

Columns and labels:
MftR WT [1] = molecular target: T1, MftR WT; test: EMSA; conditions: EMSA: 50 mM Hepes, 50 mM NaCl, 0.1 mM EDTA, pH 7.5, room temperature 10 min, 5% PAGE in 1x TBE on ice; footprinting: 30 C 30 min; FP conditions not in material.
MftR H68A = molecular target: T2, MftR H68A; test: EMSA; 100 uM oleoyl-CoA; EMSA: 50 mM Hepes, 50 mM NaCl, 0.1 mM EDTA, pH 7.5, room temperature 10 min, 5% PAGE in 1x TBE on ice; footprinting: 30 C 30 min; FP conditions not in material. Text fold changes for R29A/R48A and L120R/M127A are swapped relative to Table 2; table values used; conditions: protein: recombinant; tags: His-tag (pET-28a); chain copies: 2; label: 6-FAM; blunt
MftR D16R = molecular target: T3, MftR D16R; test: as above; conditions: protein: recombinant; tags: His-tag (pET-28a); chain copies: 2; label: 6-FAM; blunt
MftR WT [2] = molecular target: T1, MftR WT; test: fluorescence polarization; EMSA: 50 mM Hepes, 50 mM NaCl, 0.1 mM EDTA, pH 7.5, room temperature 10 min, 5% PAGE in 1x TBE on ice; footprinting: 30 C 30 min; FP conditions not in material. Text fold changes for R29A/R48A and L120R/M127A are swapped relative to Table 2; table values used; conditions: protein: recombinant; tags: His-tag (pET-28a, NdeI/XhoI); chain copies: 2; label: 6-FAM; blunt
MftR R48A = molecular target: T4, MftR R48A; test: as above; conditions: protein: recombinant; tags: His-tag (pET-28a); chain copies: 2; label: 6-FAM; blunt
MftR D38A = molecular target: T5, MftR D38A; test: as above; conditions: protein: recombinant; tags: His-tag (pET-28a); chain copies: 2; label: 6-FAM; blunt
MftR L120R = molecular target: T6, MftR L120R; test: as above; conditions: protein: recombinant; tags: His-tag (pET-28a); chain copies: 2; label: 6-FAM; blunt
MftR M127A = molecular target: T7, MftR M127A; test: as above; conditions: protein: recombinant; tags: His-tag (pET-28a); chain copies: 2; label: 6-FAM; blunt
MftR R29A = molecular target: T8, MftR R29A; test: as above; conditions: protein: recombinant; tags: His-tag (pET-28a); chain copies: 2; label: 6-FAM; blunt

Molecule | Kd (MftR WT [1]) | binding result (MftR H68A) | binding result (MftR D16R) | Kd (MftR WT [2]) | Kd (MftR R48A) | binding result (MftR D38A) | Kd (MftR L120R) | Kd (MftR M127A) | Kd (MftR R29A)
Pmft | 600 nM |  |  |  |  |  |  |  | 
B1 |  | binds | binds | 1300 ± 600 nM | 13 ± 1.1 µM | no binding | 28 ± 6 µM | 13 ± 6 µM | 20.5 ± 2 µM
